Consider 3 molecules from patent US20150330981A1 (published 2015).

For data set [1], the target named is T1, GST-PGC-1β (1-367 aa; GST-P5) (UniProt Q8VHJ7).
T1 sequence: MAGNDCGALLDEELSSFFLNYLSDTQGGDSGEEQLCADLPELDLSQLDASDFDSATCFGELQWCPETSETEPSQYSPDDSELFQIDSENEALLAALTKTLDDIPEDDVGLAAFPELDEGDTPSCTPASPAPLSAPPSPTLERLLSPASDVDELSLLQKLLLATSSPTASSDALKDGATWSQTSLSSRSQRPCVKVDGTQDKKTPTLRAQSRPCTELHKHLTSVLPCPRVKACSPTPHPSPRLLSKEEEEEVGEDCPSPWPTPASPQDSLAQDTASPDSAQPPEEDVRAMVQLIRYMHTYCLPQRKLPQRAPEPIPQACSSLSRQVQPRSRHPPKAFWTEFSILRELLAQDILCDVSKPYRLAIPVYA

Data set [2] deals with T2, in vitro transcribed/translated PGC-1β (FLAG-PGC), Q8VHJ7.
T2 chain: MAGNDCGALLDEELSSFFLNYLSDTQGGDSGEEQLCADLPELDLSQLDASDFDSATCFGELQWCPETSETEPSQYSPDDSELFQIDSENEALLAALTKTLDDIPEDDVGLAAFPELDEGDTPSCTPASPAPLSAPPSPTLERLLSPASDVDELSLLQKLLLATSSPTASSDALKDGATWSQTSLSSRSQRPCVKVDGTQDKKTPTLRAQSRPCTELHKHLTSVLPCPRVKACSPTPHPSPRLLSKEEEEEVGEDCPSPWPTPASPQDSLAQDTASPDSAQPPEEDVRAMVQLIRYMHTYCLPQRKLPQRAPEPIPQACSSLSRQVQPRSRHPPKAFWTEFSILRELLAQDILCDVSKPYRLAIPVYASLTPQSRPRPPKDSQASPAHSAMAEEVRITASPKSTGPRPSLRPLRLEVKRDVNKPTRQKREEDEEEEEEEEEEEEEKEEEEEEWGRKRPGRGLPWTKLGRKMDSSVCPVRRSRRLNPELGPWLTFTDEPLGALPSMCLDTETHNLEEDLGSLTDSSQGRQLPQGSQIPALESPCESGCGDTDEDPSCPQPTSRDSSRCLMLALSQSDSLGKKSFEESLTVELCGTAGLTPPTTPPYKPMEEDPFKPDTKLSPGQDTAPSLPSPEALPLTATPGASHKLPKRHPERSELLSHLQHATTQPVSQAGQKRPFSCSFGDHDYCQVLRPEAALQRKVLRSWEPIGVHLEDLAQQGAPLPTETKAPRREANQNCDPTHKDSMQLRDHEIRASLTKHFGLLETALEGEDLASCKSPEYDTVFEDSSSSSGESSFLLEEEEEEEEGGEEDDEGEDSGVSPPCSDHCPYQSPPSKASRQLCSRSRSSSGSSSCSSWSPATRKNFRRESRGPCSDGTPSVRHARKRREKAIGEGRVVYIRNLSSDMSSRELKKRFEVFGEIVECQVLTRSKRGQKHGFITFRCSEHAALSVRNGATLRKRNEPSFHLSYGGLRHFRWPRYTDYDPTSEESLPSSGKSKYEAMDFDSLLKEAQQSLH

For data set [3], the target named is T3, HA PGC-1β (full-length mouse PGC-1β with HA tag), Q8VHJ7.
T3 chain: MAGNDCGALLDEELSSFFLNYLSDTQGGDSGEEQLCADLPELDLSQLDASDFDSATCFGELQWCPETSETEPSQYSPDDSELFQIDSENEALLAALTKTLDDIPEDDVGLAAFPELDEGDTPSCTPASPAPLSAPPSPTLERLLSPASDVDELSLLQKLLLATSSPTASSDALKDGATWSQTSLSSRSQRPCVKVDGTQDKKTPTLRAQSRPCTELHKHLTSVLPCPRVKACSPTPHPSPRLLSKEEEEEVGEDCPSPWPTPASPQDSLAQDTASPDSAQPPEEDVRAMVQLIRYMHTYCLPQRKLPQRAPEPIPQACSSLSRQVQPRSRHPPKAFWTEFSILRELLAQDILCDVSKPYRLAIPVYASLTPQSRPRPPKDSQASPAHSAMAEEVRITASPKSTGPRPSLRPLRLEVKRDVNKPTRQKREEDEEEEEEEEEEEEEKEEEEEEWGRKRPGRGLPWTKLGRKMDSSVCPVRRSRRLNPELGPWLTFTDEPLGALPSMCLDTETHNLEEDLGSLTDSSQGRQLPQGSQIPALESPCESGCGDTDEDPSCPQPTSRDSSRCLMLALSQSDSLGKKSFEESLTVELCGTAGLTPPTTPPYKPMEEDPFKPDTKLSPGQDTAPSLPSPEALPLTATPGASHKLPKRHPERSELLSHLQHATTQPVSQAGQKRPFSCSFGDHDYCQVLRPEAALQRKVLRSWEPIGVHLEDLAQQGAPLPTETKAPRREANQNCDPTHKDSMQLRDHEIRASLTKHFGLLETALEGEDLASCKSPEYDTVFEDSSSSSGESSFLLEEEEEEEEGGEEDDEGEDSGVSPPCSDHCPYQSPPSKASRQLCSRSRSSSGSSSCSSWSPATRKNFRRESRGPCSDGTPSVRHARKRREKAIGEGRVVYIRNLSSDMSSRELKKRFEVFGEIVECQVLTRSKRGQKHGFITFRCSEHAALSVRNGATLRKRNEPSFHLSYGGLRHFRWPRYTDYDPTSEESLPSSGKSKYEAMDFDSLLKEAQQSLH

Data set [4] deals with T4, HA PGC-1β (full-length mouse PGC-1β with HA tag) (mouse, UniProt Q8VHJ7 1-1014).
T4 sequence (looked up): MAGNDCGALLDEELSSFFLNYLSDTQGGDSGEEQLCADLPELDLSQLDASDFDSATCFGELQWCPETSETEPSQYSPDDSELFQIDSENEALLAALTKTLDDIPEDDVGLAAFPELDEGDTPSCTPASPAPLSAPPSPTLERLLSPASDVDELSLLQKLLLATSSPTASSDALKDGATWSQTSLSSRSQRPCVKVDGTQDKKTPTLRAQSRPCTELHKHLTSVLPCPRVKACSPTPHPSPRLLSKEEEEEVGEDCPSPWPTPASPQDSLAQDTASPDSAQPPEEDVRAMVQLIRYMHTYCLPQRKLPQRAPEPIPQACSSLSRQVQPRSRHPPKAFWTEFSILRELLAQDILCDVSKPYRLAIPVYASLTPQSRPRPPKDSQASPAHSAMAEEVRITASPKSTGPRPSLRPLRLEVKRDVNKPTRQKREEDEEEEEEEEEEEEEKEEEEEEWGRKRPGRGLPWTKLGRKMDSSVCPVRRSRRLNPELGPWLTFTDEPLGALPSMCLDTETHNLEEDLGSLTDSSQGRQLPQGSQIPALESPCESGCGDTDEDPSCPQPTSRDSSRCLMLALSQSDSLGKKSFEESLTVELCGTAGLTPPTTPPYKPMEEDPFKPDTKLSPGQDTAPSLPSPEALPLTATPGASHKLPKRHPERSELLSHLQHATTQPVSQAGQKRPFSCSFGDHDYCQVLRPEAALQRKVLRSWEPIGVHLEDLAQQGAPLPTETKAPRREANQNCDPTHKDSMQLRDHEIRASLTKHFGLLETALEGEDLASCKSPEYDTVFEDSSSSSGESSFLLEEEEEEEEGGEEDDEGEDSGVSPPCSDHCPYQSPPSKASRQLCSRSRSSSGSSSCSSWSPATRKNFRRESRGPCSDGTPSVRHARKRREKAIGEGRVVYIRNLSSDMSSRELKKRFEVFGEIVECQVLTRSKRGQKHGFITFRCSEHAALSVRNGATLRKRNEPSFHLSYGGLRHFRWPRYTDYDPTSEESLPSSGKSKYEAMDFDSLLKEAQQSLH
The data set can be described thus: cell-based or functional assay.

Data set [5] has as its target T4, HA PGC-1β (full-length mouse PGC-1β …). The data set can be described thus: co-immunoprecipitation with anti-FLAG from HEK-293T extract, anti-HA Western blot. On the procedure: Whether synoviolin and PGC-1β actually form a complex in in vivo was investigated. Specifically, a plasmid for expressing PGC-1β with HA tag (HA PGC-1β) and a plasmid for expressing synoviolin with FLAG tag (SYVN1/FLAG) or the modified synoviolin with FLAG tag (SYVN1ΔSyU/FLAG) were transfected in HEK-293T cells. Whole cell extract from the HEK-293T cells transfected with the expression plasmids was prepared to immunoprecipitate using anti-FLAG antibody. Proteins bound to the anti-FLAG antibody were eluted and separated by SDS-PAGE, and Western blot was performed using anti-HA antibody and the anti-FLAG antibody.

For MBP-SYVN1 ΔTM-His, the “in vitro ubiquitination assay (E1-His, UbcH5C, HA-ubiquitin; GST capture, Western blot)” value in data set [1] is “synoviolin (SYVN1) has directly ubiquitinated PGC-1β”.

B1: modified synoviolin fused to GST (syno(236-338)) (protein)
chain: KVHTFPLFAIRPMYLAMRQFKKAVTDAIMSRRAIRNMNTLYPDATPEELQAMDNVCIICREEMVTGAKRLPCNHIFHTSCLRSWFQRQQTCPTCRMDVLRASL
Consider B1, for which the “in vitro ubiquitination assay” value in data set [2] was “polyubiquitinated PGC-1β was detected under the condition with the presence of all of ATP, PK-His-HA-Ub, E1-His, UBE2G2-His, and syno(236-338)”.

B2: modified synoviolin with FLAG tag (SYVN1ΔSyU/FLAG) (enzyme, UniProt Q86TM6 1-617, looked up)
chain: MFRTAVMMAASLALTGAVVAHAYYLKHQFYPTVVYLTKSSPSMAVLYIQAFVLVFLLGKVMGKVFFGQLRAAEMEHLLERSWYAVTETCLAFTVFRDDFSPRFVALFTLLLFLKCFHWLAEDRVDFMERSPNISWLFHCRIVSLMFLLGILDFLFVSHAYHSILTRGASVQLVFGFEYAILMTMVLTIFIKYVLHSVDLQSENPWDNKAVYMLYTELFTGFIKVLLYMAFMTIMINMNTLYPDATPEELQAMDNVCIICREEMVTGAKRLPCNHIFHTSCLRSWFQRQQTCPTCRMDVLRASLPAQSPPPPEPADQGPPPAPHPPPLLPQPPNFPQGLLPPFPPGMFPLWPPMGPFPPVPPPPSSGEAVAPPSTSAAALSRPSGAATTTAAGTSATAASATASGPGSGSAPEAGPAPGFPFPPPWMGMPLPPPFAFPPMPVPPAGFAGLTPEELRALEGHERQHLEARLQSLRNIHTLLDAAMLQINQYLTVLASLGPPRPATSVNSTEETATTVVAAASSTSIPSSEATTPTPGASPPAPEMERPPAPESVGTEEMPEDGEPDAAELRRRRLQKLESPVAH
notes: Deletion construct expressed in cells; also called synoviolin ΔSyU/FLAG; Synoviolin ASyU/FLAG; not shown: FLAG tag
Take B2: in data set [3], the “half-life of PGC-1β (cycloheximide chase, MEF Syno-/-)” value is “SYVN1 ΔSyU has not so promoted degradation of PGC-1β”. Further, the “half-life of PGC-1β in cells (cycloheximide chase, Western blot)” value in data set [4] amounted to 3.6 h. For the same molecule, the binding result in data set [5] was “no binding”.
